Laboratory results reported in the supplement of paper PMC9112550, “Optimization of the antimicrobial peptide Bac7 by deep mutational scanning” (BMC Biology, 2022).
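Note: peptides expressed intracellularly from a pBAD plasmid library in pooled LB shake-flask culture, induced with 0.3% L-arabinose, DNA abundance read by NGS, three biological replicates, DESeq2 with apeglm shrinkage.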

Each sequence was assayed on Escherichia coli TOP10 (assay: shrunken log2 fold change of peptide-encoding DNA abundance (4.5 h post-induction vs induction); higher = less antimicrobial activity (less host growth inhibition)). Details: time post-induction: 4.5 h; library: site-saturation at positions 5, 18, 19, 20.
RRIRMRPPRLPRPRPRPMAAPRP was tested, and the “shrunken log2 fold change” value was 0.117. In the case of RRIRVRPPRLPRPRPRPRELPRP, the “shrunken log2 fold change” value was -0.0137. RRIRPRPPRLPRPRPRPHEWPRP was tested, and the “shrunken log2 fold change” value was 0.278. RRIRGRPPRLPRPRPRPHYNPRP was tested, and the “shrunken log2 fold change” value was -0.265. In the case of RRIRWRPPRLPRPRPRPWTFPRP, the “shrunken log2 fold change” value was -0.146. In the case of RRIRLRPPRLPRPRPRPILRPRP, the “shrunken log2 fold change” value was -0.156. In the case of RRIRQRPPRLPRPRPRPESHPRP, the “shrunken log2 fold change” value was -0.159. With RRIRMRPPRLPRPRPRPIMDPRP the “shrunken log2 fold change” value was -0.133. With RRIRHRPPRLPRPRPRPRIIPRP the “shrunken log2 fold change” value was -1.44. In the case of RRIRDRPPRLPRPRPRPTSNPRP, the “shrunken log2 fold change” value was 0.24. For RRIRARPPRLPRPRPRPRLDPRP, the “shrunken log2 fold change” value was 0.291. For RRIRQRPPRLPRPRPRPTNMPRP, the “shrunken log2 fold change” value was -0.521. For RRIRHRPPRLPRPRPRPPQEPRP, the “shrunken log2 fold change” value was -0.0115. In the case of RRIRTRPPRLPRPRPRPVCFPRP, the “shrunken log2 fold change” value was -0.104. In the case of RRIRKRPPRLPRPRPRPMCGPRP, the “shrunken log2 fold change” value was 0.0595. RRIRQRPPRLPRPRPRPQLEPRP was tested, and the “shrunken log2 fold change” value was 0.307. RRIRYRPPRLPRPRPRPEAAPRP was tested, and the “shrunken log2 fold change” value was 0.319. With RRIRARPPRLPRPRPRPPCGPRP the “shrunken log2 fold change” value was 0.443. For RRIRLRPPRLPRPRPRPAPLPRP, the “shrunken log2 fold change” value was 0.273. RRIRQRPPRLPRPRPRPLMMPRP was tested, and the “shrunken log2 fold change” value was -0.0501. For RRIRDRPPRLPRPRPRPSQFPRP, the “shrunken log2 fold change” value was -0.181. For RRIRKRPPRLPRPRPRPDICPRP, the “shrunken log2 fold change” value was 0.0913. With RRIRWRPPRLPRPRPRPKVRPRP the “shrunken log2 fold change” value was -0.00879. RRIRNRPPRLPRPRPRPERWPRP was tested, and the “shrunken log2 fold change” value was 0.699. For RRIRIRPPRLPRPRPRPAKGPRP, the “shrunken log2 fold change” value was -0.224. With RRIRDRPPRLPRPRPRPWVAPRP the “shrunken log2 fold change” value was -0.0114. With RRIRERPPRLPRPRPRPSLGPRP the “shrunken log2 fold change” value was -0.143. With RRIRERPPRLPRPRPRPEYRPRP the “shrunken log2 fold change” value was -0.00146. For RRIRPRPPRLPRPRPRPGCPPRP, the “shrunken log2 fold change” value was 0.0239. In the case of RRIRHRPPRLPRPRPRPELAPRP, the “shrunken log2 fold change” value was -0.0268. For RRIRVRPPRLPRPRPRPHYYPRP, the “shrunken log2 fold change” value was 0.0781. RRIRMRPPRLPRPRPRPSSLPRP was tested, and the “shrunken log2 fold change” value was -0.156. RRIRRRPPRLPRPRPRPATKPRP was tested, and the “shrunken log2 fold change” value was 0.0529. RRIRIRPPRLPRPRPRPHTWPRP was tested, and the “shrunken log2 fold change” value was -0.401. With RRIRGRPPRLPRPRPRPHGAPRP the “shrunken log2 fold change” value was -0.00969. RRIRPRPPRLPRPRPRPDCFPRP was tested, and the “shrunken log2 fold change” value was 0.112. In the case of RRIRKRPPRLPRPRPRPVRAPRP, the “shrunken log2 fold change” value was 1.27. For RRIRGRPPRLPRPRPRPYDKPRP, the “shrunken log2 fold change” value was -0.147. In the case of RRIRERPPRLPRPRPRPQCCPRP, the “shrunken log2 fold change” value was -0.106. For RRIRQRPPRLPRPRPRPVCAPRP, the “shrunken log2 fold change” value was 0.118. In the case of RRIRWRPPRLPRPRPRPDDLPRP, the “shrunken log2 fold change” value was -0.024. With RRIRRRPPRLPRPRPRPPYNPRP the “shrunken log2 fold change” value was -0.019. In the case of RRIRSRPPRLPRPRPRPTILPRP, the “shrunken log2 fold change” value was -0.413. In the case of RRIRYRPPRLPRPRPRPAQFPRP, the “shrunken log2 fold change” value was 0.0198. RRIRMRPPRLPRPRPRPCVFPRP was tested, and the “shrunken log2 fold change” value was -0.065. RRIRSRPPRLPRPRPRPNWGPRP was tested, and the “shrunken log2 fold change” value was -0.0911. RRIRPRPPRLPRPRPRPFECPRP was tested, and the “shrunken log2 fold change” value was -0.242. In the case of RRIRGRPPRLPRPRPRPISCPRP, the “shrunken log2 fold change” value was 0.279. For RRIRWRPPRLPRPRPRPRIWPRP, the “shrunken log2 fold change” value was -0.0288. With RRIRHRPPRLPRPRPRPKFMPRP the “shrunken log2 fold change” value was -0.497. In the case of RRIRLRPPRLPRPRPRPNCYPRP, the “shrunken log2 fold change” value was -0.422. With RRIRCRPPRLPRPRPRPQPYPRP the “shrunken log2 fold change” value was -0.975. For RRIRDRPPRLPRPRPRPRACPRP, the “shrunken log2 fold change” value was 0.389. In the case of RRIRKRPPRLPRPRPRPFHSPRP, the “shrunken log2 fold change” value was 0.00367. For RRIRRRPPRLPRPRPRPQFMPRP, the “shrunken log2 fold change” value was -0.139. RRIRFRPPRLPRPRPRPMNMPRP was tested, and the “shrunken log2 fold change” value was -0.546. With RRIRIRPPRLPRPRPRPCIDPRP the “shrunken log2 fold change” value was -0.0398. RRIRRRPPRLPRPRPRPPIQPRP was tested, and the “shrunken log2 fold change” value was 0.16. In the case of RRIRCRPPRLPRPRPRPMNEPRP, the “shrunken log2 fold change” value was -0.307. With RRIRRRPPRLPRPRPRPAECPRP the “shrunken log2 fold change” value was -0.00699. In the case of RRIRIRPPRLPRPRPRPVRPPRP, the “shrunken log2 fold change” value was 0.664. RRIRWRPPRLPRPRPRPCHTPRP was tested, and the “shrunken log2 fold change” value was -0.53. In the case of RRIRLRPPRLPRPRPRPWSQPRP, the “shrunken log2 fold change” value was -0.145. With RRIRLRPPRLPRPRPRPNIIPRP the “shrunken log2 fold change” value was -0.313. RRIRWRPPRLPRPRPRPCRTPRP was tested, and the “shrunken log2 fold change” value was 0.112. In the case of RRIRARPPRLPRPRPRPTTAPRP, the “shrunken log2 fold change” value was 0.514. For RRIRKRPPRLPRPRPRPFQEPRP, the “shrunken log2 fold change” value was 0.149. For RRIRIRPPRLPRPRPRPDRQPRP, the “shrunken log2 fold change” value was 0.0357. With RRIRQRPPRLPRPRPRPVGDPRP the “shrunken log2 fold change” value was 0.203. With RRIRGRPPRLPRPRPRPDYFPRP the “shrunken log2 fold change” value was -0.0114. With RRIRHRPPRLPRPRPRPMIYPRP the “shrunken log2 fold change” value was -0.105. In the case of RRIRMRPPRLPRPRPRPSTDPRP, the “shrunken log2 fold change” value was 0.949. RRIRFRPPRLPRPRPRPTGRPRP was tested, and the “shrunken log2 fold change” value was 0.131. With RRIRNRPPRLPRPRPRPTFAPRP the “shrunken log2 fold change” value was 0.343. With RRIRPRPPRLPRPRPRPVCEPRP the “shrunken log2 fold change” value was 0.227.
